Measured values: PMC6954437 (Nucleic Acids Research, 2019)
Residue numbers refer to the chain shown, from its start. Numbers in names are those of the source.

Assays:
SEC-MALS = molecular target: the molecule itself; test: SEC-MALS
[…] = molecular target: the molecule itself; test: […]
[1] = molecular target: T1, Gemin5 cleavage fragment p85, wild type, with C-terminal TAP tag (human, UniProt Q8TEQ6 845-1508); test: co-IP
T1 sequence: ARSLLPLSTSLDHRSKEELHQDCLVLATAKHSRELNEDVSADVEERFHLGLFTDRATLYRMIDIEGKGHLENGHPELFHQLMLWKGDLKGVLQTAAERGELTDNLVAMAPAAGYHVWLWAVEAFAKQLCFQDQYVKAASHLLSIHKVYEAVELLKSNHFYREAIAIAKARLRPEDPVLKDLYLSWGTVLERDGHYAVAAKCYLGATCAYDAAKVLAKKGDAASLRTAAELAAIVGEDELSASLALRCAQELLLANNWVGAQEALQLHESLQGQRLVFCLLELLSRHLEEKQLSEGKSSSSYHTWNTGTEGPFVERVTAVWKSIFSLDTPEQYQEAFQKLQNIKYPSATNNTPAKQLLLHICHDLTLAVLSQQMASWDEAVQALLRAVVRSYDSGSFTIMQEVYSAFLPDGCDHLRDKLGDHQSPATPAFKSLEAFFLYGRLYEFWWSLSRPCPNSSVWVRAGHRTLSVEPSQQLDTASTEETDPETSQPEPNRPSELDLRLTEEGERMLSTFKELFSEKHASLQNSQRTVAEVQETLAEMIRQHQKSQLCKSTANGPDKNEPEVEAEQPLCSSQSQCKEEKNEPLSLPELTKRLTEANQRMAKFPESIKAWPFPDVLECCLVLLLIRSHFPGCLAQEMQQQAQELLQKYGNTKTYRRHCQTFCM

[2] = molecular target: G5-TPR (Gemin5 TPR-like dimerization domain) (Homo sapiens, UniProt Q8TEQ6 807-1097); test: EMSA

B1: Gemin5 TPR-like domain (residues 807-1097), wild type (domain or fragment)
chain: TPVSSGFEKSKVTINNKVILLKKEPPKEKPETLIKKRKARSLLPLSTSLDHRSKEELHQDCLVLATAKHSRELNEDVSADVEERFHLGLFTDRATLYRMIDIEGKGHLENGHPELFHQLMLWKGDLKGVLQTAAERGELTDNLVAMAPAAGYHVWLWAVEAFAKQLCFQDQYVKAASHLLSIHKVYEAVELLKSNHFYREAIAIAKARLRPEDPVLKDLYLSWGTVLERDGHYAVAAKCYLGATCAYDAAKVLAKKGDAASLRTAAELAAIVGEDELSASLALRCAQELLL
stoichiometry N (SEC-MALS): 2

B2: Gemin5 TPR-like domain (residues 807-1097) A951E (domain or fragment)
chain: B1 chain with A145E
stoichiometry N ([…]): 2

B3: Gemin5, full-length endogenous protein (natural protein)
chain: MGQEPRTLPPSPNWYCARCSDAVPGGLFGFAARTSVFLVRVGPGAGESPGTPPFRVIGELVGHTERVSGFTFSHHPGQYNLCATSSDDGTVKIWDVETKTVVTEHALHQHTISTLHWSPRVKDLIVSGDEKGVVFCYWFNRNDSQHLFIEPRTIFCLTCSPHHEDLVAIGYKDGIVVIIDISKKGEVIHRLRGHDDEIHSIAWCPLPGEDCLSINQEETSEEAEITNGNAVAQAPVTKGCYLATGSKDQTIRIWSCSRGRGVMILKLPFLKRRGGGIDPTVKERLWLTLHWPSNQPTQLVSSCFGGELLQWDLTQSWRRKYTLFSASSEGQNHSRIVFNLCPLQTEDDKQLLLSTSMDRDVKCWDIATLECSWTLPSLGGFAYSLAFSSVDIGSLAIGVGDGMIRVWNTLSIKNNYDVKNFWQGVKSKVTALCWHPTKEGCLAFGTDDGKVGLYDTYSNKPPQISSTYHKKTVYTLAWGPPVPPMSLGGEGDRPSLALYSCGGEGIVLQHNPWKLSGEAFDINKLIRDTNSIKYKLPVHTEISWKADGKIMALGNEDGSIEIFQIPNLKLICTIQQHHKLVNTISWHHEHGSQPELSYLMASGSNNAVIYVHNLKTVIESSPESPVTITEPYRTLSGHTAKITSVAWSPHHDGRLVSASYDGTAQVWDALREEPLCNFRGHRGRLLCVAWSPLDPDCIYSGADDFCVHKWLTSMQDHSRPPQGKKSIELEKKRLSQPKAKPKKKKKPTLRTPVKLESIDGNEEESMKENSGPVENGVSDQEGEEQAREPELPCGLAPAVSREPVICTPVSSGFEKSKVTINNKVILLKKEPPKEKPETLIKKRKARSLLPLSTSLDHRSKEELHQDCLVLATAKHSRELNEDVSADVEERFHLGLFTDRATLYRMIDIEGKGHLENGHPELFHQLMLWKGDLKGVLQTAAERGELTDNLVAMAPAAGYHVWLWAVEAFAKQLCFQDQYVKAASHLLSIHKVYEAVELLKSNHFYREAIAIAKARLRPEDPVLKDLYLSWGTVLERDGHYAVAAKCYLGATCAYDAAKVLAKKGDAASLRTAAELAAIVGEDELSASLALRCAQELLLANNWVGAQEALQLHESLQGQRLVFCLLELLSRHLEEKQLSEGKSSSSYHTWNTGTEGPFVERVTAVWKSIFSLDTPEQYQEAFQKLQNIKYPSATNNTPAKQLLLHICHDLTLAVLSQQMASWDEAVQALLRAVVRSYDSGSFTIMQEVYSAFLPDGCDHLRDKLGDHQSPATPAFKSLEAFFLYGRLYEFWWSLSRPCPNSSVWVRAGHRTLSVEPSQQLDTASTEETDPETSQPEPNRPSELDLRLTEEGERMLSTFKELFSEKHASLQNSQRTVAEVQETLAEMIRQHQKSQLCKSTANGPDKNEPEVEAEQPLCSSQSQCKEEKNEPLSLPELTKRLTEANQRMAKFPESIKAWPFPDVLECCLVLLLIRSHFPGCLAQEMQQQAQELLQKYGNTKTYRRHCQTFCM
fold recruitment against p85-A951E [1]: 10 fold

B4: dsDNA H1-24-s/H1-24-as (dsDNA)
DNA 1: AATTCCCCAAATTCCAGTGTCTGGGTAAG
DNA 2: TCGACTTACCCAGACACTGGAATTTGGGG
binding result [2]: no binding

AATTCCCCAAATTCCAGTGTCTGGGTAAG (ssDNA) [ssDNA H1-24-s (29 nt)]
binding result [2]: no binding
